% associated MLK3/input MLK3 after overnight incubation and amount in GST-p63RhoGEF complexes relative to FLAG-MLK3^KR data for 2 substances are collected here from article PMC2603627.

This assay has as its target GST-tagged p63RhoGEF (UniProt Q86VW2). Description: pull-down.
Chain of UniProt Q86VW2 (Q86VW2 whole entry): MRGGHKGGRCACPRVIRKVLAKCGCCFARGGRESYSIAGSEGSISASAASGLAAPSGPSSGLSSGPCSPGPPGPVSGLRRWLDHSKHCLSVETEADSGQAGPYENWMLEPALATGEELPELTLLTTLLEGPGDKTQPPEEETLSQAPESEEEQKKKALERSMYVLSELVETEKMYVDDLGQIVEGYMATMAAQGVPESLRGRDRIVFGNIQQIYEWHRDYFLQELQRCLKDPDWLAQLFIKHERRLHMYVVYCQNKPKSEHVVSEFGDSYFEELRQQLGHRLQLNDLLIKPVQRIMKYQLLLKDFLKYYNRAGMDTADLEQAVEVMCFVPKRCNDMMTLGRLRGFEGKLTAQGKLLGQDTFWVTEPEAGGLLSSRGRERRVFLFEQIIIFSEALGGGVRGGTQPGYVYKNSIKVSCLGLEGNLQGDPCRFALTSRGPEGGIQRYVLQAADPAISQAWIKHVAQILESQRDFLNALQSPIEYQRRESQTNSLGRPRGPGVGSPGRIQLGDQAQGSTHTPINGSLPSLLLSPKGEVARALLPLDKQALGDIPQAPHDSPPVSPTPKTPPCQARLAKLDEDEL

Turning to “FLAG-MLK3^KR (kinase-deficient, ATP-binding point mutant of MLK3) (from UniProt Q16584 1-847) (enzyme)”, the % associated MLK3/input MLK3 after overnight incubation came to 44%. For “FLAG-MLK3^KR/T277D,S281D (from UniProt Q16584 1-847) (enzyme)”, the amount in GST-p63RhoGEF complexes relative to FLAG-MLK3^KR amounted to 2 fold.
